B1: DIM1 dimethyladenosine transferase 1 homolog (S. cerevisiae) (enzyme)
chain: MPKVKSGAIGRRRGRQEQRRELKSAGGLMFNTGIGQHILKNPLIINSIIDKAALRPTDVVLEVGPGTGNMTVKLLEKAKKVVACELDPRLVAELHKRVQGTPVASKLQVLVGDVLKTDLPFFDTCVANLPYQISSPFVFKLLLHRPFFRCAILMFQREFALRLVAKPGDKLYCRLSINTQLLARVDHLMKVGKNNFRPPPKVESSVVRIEPKNPPPPINFQEWDGLVRITFVRKNKTLSAAFKSSAVQQLLEKNYRIHCSVHNIIIPEDFSIADKIQQILTSTGFSDKRARSMDIDDFIRLLHGFNAEGIHFS
notes: also called DIMT1
B2: Signal recognition particle 19kDa (other)
chain: MACAAARSPADQDRFICIYPAYLNNKKTIAEGRRIPISKAVENPTATEIQDVCSAVGLNVFLEKNKMYSREWNRDVQYRGRVRVQLKQEDGSLCLVQFPSRKSVMLYAAEMIPKLKTRTQKTGGADQSLQQGEGSKKGKGKKKK
notes: also called SRP19
B3: Vaccinia related kinase 1 (enzyme)
chain: MPRVKAAQAGRQSSAKRHLAEQFAVGEIITDMAKKEWKVGLPIGQGGFGCIYLADMNSSESVGSDAPCVVKVEPSDNGPLFTELKFYQRAAKPEQIQKWIRTRKLKYLGVPKYWGSGLHDKNGKSYRFMIMDRFGSDLQKIYEANAKRFSRKTVLQLSLRILDILEYIHEHEYVHGDIKASNLLLNYKNPDQVYLVDYGLAYRYCPEGVHKEYKEDPKRCHDGTIEFTSIDAHNGVAPSRRGDLEILGYCMIQWLTGHLPWEDNLKDPKYVRDSKIRYRENIASLMDKCFPEKNKPGEIAKYMETVKLLDYTEKPLYENLRDILLQGLKAIGSKDDGKLDLSVVENGGLKAKTITKKRKKEIEESKEPGVEDTEWSNTQTEEAIQTRSRTRKRVQK
notes: also called VRK1

target: biotinylated full-length Dengue virus capsid (DENV C) protein (Dengue virus serotype 2 (NGC strain)); test: ELISA, coated bought protein, biotinylated DENV C as probe, streptavidin-HRP

Row | Binder | binding result
1 | B1 | binds
2 | B2 | binds
3 | B3 | binds

Source: patent US20170158742A1 (NATIONAL UNIVERSITY OF SINGAPORE, published 2017)
